Laboratory results published in the nanobody polyreactivity screen of Harvey et al. (2022).

Experiment: yeast display, Sf9 membrane polyspecificity reagent, FACS + sequencing; frameworks hold sequencing errors
Method in brief: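 Sorting gates, low and high (top ~1%), were placed on anti-HA fluorescence to track expression and on streptavidin fluorescence to track reagent binding. A clone's polyreactivity label is taken from the gate it came out of. The reagent was 10% biotinylated, detergent-solubilized Sf9 membrane, applied for 1 hour at 4 °C to galactose-induced yeast display cells.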

QVQLVESGGGLVQAGGSLRLSCAASGSIFPGYAMGWYRQAPGKERELVADITSGDTTKYADSVKGRFTISRDNAKNNVYLQMNSLKPEDTAVYYCAADDYLTDFDYWGQGTQVTVSS
polyreactivity (PSR sort gate): low polyreactivity

QVQLVESGGGLFQAGGSLRLSCAASGSTFFGYAMGWYRQAPGKERELVAAISSRGGTTNYADSVKGRFTISRDNAKNTVYLQMNSLKPEDNAVYYCNAKDTQEYNRVKYNYWGQGTQVTVSS
polyreactivity (PSR sort gate): high polyreactivity

QVQLVESGGGLVQAGGSLRLSCAASGSTFVSNTMGWYRQAPGKERELVAAITWGGGGTYYADSVKGRFTISRDNAKNTVYLQMNSLKPEDTAVYYCAAKVQGGYYDYDYWGQGTQVTVSS
polyreactivity (PSR sort gate): low polyreactivity

QVQLVESGGGLVQAGGSLRLSCAASGNTFRWYAMGWYRQAPGKERELVATISRRGGITYYADSVKGRFTISRDNAKNTVYFQMNSLKPEDTAVYYCAAYSGSGLGAYDYWGQGTQVTVSS
polyreactivity (PSR sort gate): high polyreactivity

QVKLEESGGRLVQAGGTLRLRCAASGIIYRFYTIGWYRQAPGKERELVAAIRSGGRTYYADSVKGRFTISRDNAKNTVYLQINSLKPEDSAVYYCAKEPSRYSRYNYWGQGTQVTVSS
polyreactivity (PSR sort gate): high polyreactivity

QVQLVESGGGLVQAGGSLRLSCAASGRIFYPYAMGWYRQAPGKEWELVAAINRSAGSTSYADSVKGRFTISRDNAKNTVYLQMKSLKPEDTAVYYCAAQGRWHRHFDYWGQGTQVNVSS
polyreactivity (PSR sort gate): high polyreactivity

QVQLVESGGGLVQAGGSLRLSCAASGSTFDRNVMGWYRQAPGKERELVAAISRVSSTNYSDSVKGRFTISRDNAKNTVYLQMNSLKPEDTAVYYCAADRAGSIMNYWGQGTQVTVSS
polyreactivity (PSR sort gate): low polyreactivity

QVQLVESGGGLVQAGGSLRLSCAASRLIVYQNAMGWYRQAPGKEREFVAAISWSGGRTYYADSVKGRFTISRDNAKNTVYLQMNSLKPEDTAVYYCAARFTYYTYEFEYWGQGTQVTVSS
polyreactivity (PSR sort gate): high polyreactivity

QVQLVESGGGLVQAGGSLRLSSAASGLTFNYYAMGWYRQAPGKERELVAAISKSGGRTYYADSVKGRFTISRDNAKNTVYLQMNSLKPEDTAVYYCNDVVPRSRYFSWTYDYWGQGTQVTVSS
polyreactivity (PSR sort gate): high polyreactivity

QVQLVESGGGLVQAGGSLRLSCAASGINFDDNTMGWYRQAPGKERELLAAISSSGGSTYYADSVKGRFTISRDNAKNTVYFQMNSLNPEDTAVYYCAAADYYTYPYIVYRNYPEFDYWGQGTQVTVSS
polyreactivity (PSR sort gate): low polyreactivity

QVQLVESGGGLVQAGGSLRLICAASGRTFAPYAMGWYRQAPGKEMQLVAAISSGGGNTYYADSVKGRFTISRDNAKNTVYLQMNSLKPEDTAVYYCNAAQRRGGLGYWGQGTQVTVSS
polyreactivity (PSR sort gate): high polyreactivity

QVQLVESGGGLVQAGGSLRLSCAASGRIFTIYAMGWSRQAPGKERELVATISRRGGSTYYADSVKGRFTISRDNAKNTVYLKMNSLKPEDSAVYYFAADSVITWWAYYYWGQGTQVTVSS
polyreactivity (PSR sort gate): high polyreactivity

QVQLVESGAGLVQEGGSLRLSCAASGSIFQAYAMGWYRKAPGKERELVANISSGGSTNYADSVKGRFTISRDNAKNTVYLQMNSLKPEDTAVYYCAASRWIFVLTYEYDYWNRRDYWGQGTQVTVSS
polyreactivity (PSR sort gate): low polyreactivity

QVQLVESGGGLVQAGGSLRLSCAASGNILRYAMGWYRQAPGKERELVARISWRGGSTYYADSVKGRFTISRDNAKNTVYLQMNSLKPEDTAVYYCNKAYLGGGWQKTYDYWGQGTQVTVSS
polyreactivity (PSR sort gate): high polyreactivity

QVQLVESGGGLVQAGGSLRLSCAASGSIFGVYAIGWYRQAPGKERELVATISWSAGSTYYADSVKGRFTISRDNAKNTVYLQMNSLKPEDTAVYYCAAGVRWLGLYDLFTFDYWGQGTQVTVSS
polyreactivity (PSR sort gate): low polyreactivity

QVQLQESSGGLVQAGGSLRMSCAASGTIFHFHIMGWYRQAPGKVREFVAAISYGTSTYYADSVKGRFTISRDNAKNTVYLLMNRQKPEDTEVYYCAVYEYLEVYCWYWGQGTQGTVSS
polyreactivity (PSR sort gate): low polyreactivity

QDQLVESGGGLVQAGGSLRLSCAASGRTLVHYGMGRYRQAPRKERELVAVITSGGSTYYADSVKARFTISRDNAKNTVYLQMNSLKPEDTAVYYCAAYKERFYEEYGYWGQGTQLTVSS
polyreactivity (PSR sort gate): low polyreactivity

QVQLVESGGGLVQAGGSLRLSCAASGSILYLYAMGWYRPAPGKERELVAAITRIGGSTYYADSVKGRFTISRDNAKNTVYLQMNSLKPEDTAVYYCAAGGTARDDSWGQGTQVTVSS
polyreactivity (PSR sort gate): low polyreactivity

QVQLVESGGGLVQAGGSLRLSCAASGRIFVYNVMGRYRQAPGKERDLVAAISWGTGSTYADSVKGRFTISRDNAKNTVYLQMNSLKPEDTAVYYCAADSFIPPYDHWGLGTQVTVSS
polyreactivity (PSR sort gate): low polyreactivity

QVQLVESGGGLVQAGGSLPLSCAASGSIFTYYAMGSYRQAPGKEREFVAAISRRGGSTYYADSVKGRFTISRDNAKNTVYLQMNSLKPEDTAVYYCNARDTGSSLYYWGQGTQVTVSS
polyreactivity (PSR sort gate): high polyreactivity

QVQLVESGGGLVQAGGSLRLSCAASGRTFGGYAMGRYRQAPGKDRQLVASISWSGGSTYYADSVKGRFTISRDNAKNTVYLQMNSLKPEDTAVYYCAARPYLSRSTRMDYWGQGTQVTVSS
polyreactivity (PSR sort gate): low polyreactivity

QVQLVESGGGLVQAGGSLRLCCAAAGSTFVYYAMGSYRAAPGNERELVAAIRNGDGTNYADSVKGRFTISRDNAKNTVYLQMNSLKPEDTAVYYCAAPQGEYFYVYEFDYWGQGTQVTVSS
polyreactivity (PSR sort gate): low polyreactivity

QVQLVESGGGLVQAGGSLRLSCAASGLNFYYYTMGWYREAPGKERELVATISRSGTSTNYADSVKGRFTISRDNAKNTVYLQMNSLKPEDTAVYYCAAVLRWRDLFSEYYYLGQGTQVTVSS
polyreactivity (PSR sort gate): high polyreactivity

QVQLVESGGGLVQAGGSLRLSCAASGFTFVNYVMGWYRQAPGKERELVAAISRSGGSTYYADSVKGRFTISRDNAKNTVYLQMNSLKPEDTAVYYCAARWFYRAGFNYWGQGTQVTVSS
polyreactivity (PSR sort gate): high polyreactivity

QVQLVESGGGLVQAGGSLRLSCAASGRIFPDNAMGWYRQAHGKERELVAVITYSGGSTYYADSVKGRFTISRDNAKNTVYLQMNSLKPEDTAVYYCAARDYYIWFAEVDYWGQGTQVTVSS
polyreactivity (PSR sort gate): low polyreactivity

QFQLVESGGGLVQAGGSLRLSCASSGSTFGYNAMGWYRQAPGKESELVAAISYSGGSTSYADSVKGRFTISRDNAKNTVYLQMNSLKPEDSAVYYCASDSYSQYSSQALEGFGYWGQGTQVTVSS
polyreactivity (PSR sort gate): low polyreactivity

QVQLVESGGGLVQAGGRLSLSCAASGSIFSIYAMGWYRPSPGKERELVSGIRSTVSTNYADSVKGRFTISRDNAKNTVYLQMNSLKPEDTAVYYCATGTPTAPGNYWGQGTQVTVSS
polyreactivity (PSR sort gate): low polyreactivity

QVQLVESGGGLVQAGGSLRLSCAASGSLFPLYAMGWYRQAPGKERELVAAITWRGGSTYYADSVKGRFTISRDNAKNTVYLQMNSLKPEDTAVYYCNRDLVPRFDYWGQGTQVTVSS
polyreactivity (PSR sort gate): low polyreactivity

QVQLVESGGGLVQAGGSLRLSCAASGGTISRYGMGWYRPAPRKERELVAAITRSGSTNYADSVKERFTISRDNAKYTVYLQMNSLKPEDTAVYYGATDKRGRIGGTFDYWGQGTQVTVSS
polyreactivity (PSR sort gate): low polyreactivity

QVQLVESGGGLVQAGGSLRLSCAASGYIFGTDAMGRYRQAPGKERELVAAISSTGRTYYADSVKGRFTISRDNAKNTVYLQMNSLKPEDTAVYYCAADVRTPSEGYDYWGQGTQVTVSS
polyreactivity (PSR sort gate): high polyreactivity

QVQLVESGVGLVQAGGSLRLSCAASGRIFGAYAIGWYRQAPRKERELVAAISGSGGRTYYADSVKGRFTISRDSEKNTVYLQMNRLKPEDTAVYYCNKGYVYGHEYWGQGTQVTVSS
polyreactivity (PSR sort gate): high polyreactivity

QVQLVESGGVLVQAGGSLRLSCAASGSIFGYNVMGRYRQAPGKERELVAAITYSGGSTYYADSVKGRFTISRDNAKNTVYLQMNSLKPEDTAVYYCAKVTGRRFPAYGYDHWGQGTQLTVSS
polyreactivity (PSR sort gate): high polyreactivity
